Results published in paper PMC3320582, “Group A Streptococcus Secreted Esterase Hydrolyzes Platelet-Activating Factor to Impede Neutrophil Recruitment and Facilitate Innate Immune Evasion” (PLoS Pathogens, 2012).

System: [H][C@@](COCCCCCCCCCCCCCCCC)(COP(=O)([O-])OCC[N+](C)(C)C)SC(C)=O
Test: purified protein
Conditions: 20 mM Tris-HCl, pH 8.0, DTNB, room temperature, substrate concentrations corrected for early hydrolysis

Substance: SsE (Streptococcus pyogenes serotype M1)
- Km: 7.0 µM
- kcat: 69.6 s⁻¹
